Measured values taken from publication PMC11203719, “Mts1 (S100A4) and Its Peptide Demonstrate Cytotoxic Activity in Complex with Tag7 (PGLYRP1) Peptide” (International Journal of Molecular Sciences, 2024).
pKd: −log10 of the molar value.

Molecular target: Mts1 (S100A4) protein, recombinant human (human) (UniProt P26447)
Assay: MST; Mts1 labelled with Alexa Fluor 633 (200 nM), preincubated 20 min in the dark at room temperature with 16 concentrations of Tag7 or peptide; Monolith NT.115, 10% IR laser power; apparent Kd

Mts1 (S100A4) protein, recombinant human (human), sequence (P26447 whole entry): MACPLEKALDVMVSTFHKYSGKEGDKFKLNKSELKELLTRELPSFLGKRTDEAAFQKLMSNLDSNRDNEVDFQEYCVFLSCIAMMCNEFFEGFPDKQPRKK

Substance: Tag7 (PGLYRP1) protein, recombinant (from UniProt O88593 19-182) (natural protein)
- pKd: 5.04
